What was measured:
Test in all cases: flow cytometry on cells
[1] = target: OX40 expressed on Flp-In CHO cells (Homo sapiens (), UniProt P43489)
[2] = target: PD-1 expressed on Flp-In CHO cells (Homo sapiens (), UniProt Q15116)
[3] = target: PD-L1 expressed on Flp-In CHO cells (Homo sapiens (), UniProt Q9NZQ7)
PD-L1 expressed on Flp-In CHO cells, sequence (Q9NZQ7 19-290): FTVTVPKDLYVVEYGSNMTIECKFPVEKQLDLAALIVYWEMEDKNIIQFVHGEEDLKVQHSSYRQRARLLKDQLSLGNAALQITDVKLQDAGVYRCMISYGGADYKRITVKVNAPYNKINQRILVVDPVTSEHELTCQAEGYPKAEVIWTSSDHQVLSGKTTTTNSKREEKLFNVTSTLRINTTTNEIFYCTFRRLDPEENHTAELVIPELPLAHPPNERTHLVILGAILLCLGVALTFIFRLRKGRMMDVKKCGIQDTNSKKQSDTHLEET

OX40 expressed on Flp-In CHO cells, sequence (P43489 29-277): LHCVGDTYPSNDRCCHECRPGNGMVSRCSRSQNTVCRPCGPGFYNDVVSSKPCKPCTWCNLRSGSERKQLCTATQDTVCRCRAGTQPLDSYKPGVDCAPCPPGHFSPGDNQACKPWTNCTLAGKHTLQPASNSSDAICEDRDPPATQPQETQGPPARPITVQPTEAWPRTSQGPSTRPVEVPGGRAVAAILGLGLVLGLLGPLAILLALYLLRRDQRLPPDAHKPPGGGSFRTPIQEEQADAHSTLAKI
PD-1 expressed on Flp-In CHO cells, sequence (Q15116 25-288): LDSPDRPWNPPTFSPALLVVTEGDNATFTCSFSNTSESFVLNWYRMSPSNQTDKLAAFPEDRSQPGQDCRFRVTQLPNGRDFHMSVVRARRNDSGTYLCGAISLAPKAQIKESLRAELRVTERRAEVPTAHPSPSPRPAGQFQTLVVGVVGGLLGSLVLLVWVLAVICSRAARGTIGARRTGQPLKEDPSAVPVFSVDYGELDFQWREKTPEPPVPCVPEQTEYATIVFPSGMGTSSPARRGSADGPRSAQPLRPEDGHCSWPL

B1: tOX40.24 full-length human IgG1 (antibody, V domains shown)
VH: QVQLVESGGGVVQPGRSLRLSCAASGFTFRSYGMHWVRQAPGKGLEWLAIIWYDGSNKYYADSVKGRLTISRDNSKNTLYLQMNSLRAEDTAVYYCARDTQVAEAGFPHHHYYGMDVWGQGTTVTVSS
VL: not shown
EC50 [1]: 0.7 nM

B2: tPD1.16 full-length human IgG1 (antibody, V domains shown)
VH: QVQLVESGGGVVQPGRSLRLSCAASGFTFSNYGMHWVRQAPGKGLEWVAVIWYDGTNKFYADSVKGRFTISRDNSKNTLYLQMNSLRAEDTAVYYCATNSDDYWGQGTLVTVSS
VL: AIQMTQSPSSLSASVGDRVTITCRASQDIRNDLGWYQQKPGKAPKLLIYAASLLRSGVPSRFSGSGSGTDFTLTISSLQPEDFATYYCLQDNNYPRTFGQGTKVEIK
EC50 [2]: 2.8 nM

B3: tPDL1.3 full-length human IgG1 (antibody, V domains shown)
VH: QVQLVQSGAEVKKPGASVKVSCKASGFTFTSYDINWVRQATGQGLEWMGWMHPNSGITGYAQKFQGRVTMTRNTSISTAYMELSSLSSEDTAVYFCARYYYVSGSYDYWGQGTLVTVSS
VL: EIVMTQSPATLSLSPGERATLSCWASQSVSSSYLSWYQQKPGQAPRLLIYGASTRATGIPARFSGSGSGTDFTLTISSLQPEDFAVYYCQQDYNLPYTFGQGTKLEIK
EC50 [3]: 0.3 nM

— PMC7531523 (mAbs, 2020)
